# Reference: paper PMC7125077
# Columns and labels:
# [1] = system: ctDDX11 wild type (Chaetomium thermophilum); test: fluorescence anisotropy; conditions: 1 mM MgSO4, 25 mM HEPES pH 7.5, 25 mM KCl, 2 nM DNA, ctXPD: 20 mM HEPES pH 7.5, 50 mM KCl, 5 mM MgCl2, 1 mM TCEP, 5 nM DNA, room temperature, ctDDX11: 25 mM HEPES pH 7.5, 25 mM KCl, 1 mM MgSO4, 1 mM TCEP
# [2] = system: ctXPD R333E/R334E (Chaetomium thermophilum); test: fluorescence anisotropy; conditions: 5 mM Mg2+; no MAT1; ctXPD: 20 mM HEPES pH 7.5, 50 mM KCl, 5 mM MgCl2, 1 mM TCEP, 5 nM DNA, room temperature; ctDDX11: 25 mM HEPES pH 7.5, 25 mM KCl, 1 mM MgSO4, 1 mM TCEP, 2 nM …
# [3] = system: ctXPD R323S/R324S (Chaetomium thermophilum); test: fluorescence anisotropy; conditions: 5 mM Mg2+, ctXPD: 20 mM HEPES pH 7.5, 50 mM KCl, 5 mM MgCl2, 1 mM TCEP, 5 nM DNA, room temperature, ctDDX11: 25 mM HEPES pH 7.5, 25 mM KCl, 1 mM MgSO4, 1 mM TCEP, 2 nM …
# [4] = system: ctDDX11 K427E/K428E (Chaetomium thermophilum); test: fluorescence anisotropy; conditions: 1 mM MgSO4, 25 mM HEPES pH 7.5, 25 mM KCl, 2 nM DNA, ctXPD: 20 mM HEPES pH 7.5, 50 mM KCl, 5 mM MgCl2, 1 mM TCEP, 5 nM DNA, room temperature, ctDDX11: 25 mM HEPES pH 7.5, 25 mM KCl, 1 mM MgSO4, 1 mM TCEP
# [5] = system: ctXPD wild type;ctMAT1Lock (Chaetomium thermophilum;Chaetomium thermophilum); test: fluorescence anisotropy; conditions: 5 mM Mg2+; equimolar ctMAT1Lock; ctXPD: 20 mM HEPES pH 7.5, 50 mM KCl, 5 mM MgCl2, 1 mM TCEP, 5 nM DNA, room temperature; ctDDX11: 25 mM HEPES pH 7.5, 25 mM KCl, 1 mM MgSO4, 1 mM TCEP, 2 nM …
# [6] = system: ctXPD R324E (Chaetomium thermophilum); test: fluorescence anisotropy; conditions: 5 mM Mg2+; no MAT1; ctXPD: 20 mM HEPES pH 7.5, 50 mM KCl, 5 mM MgCl2, 1 mM TCEP, 5 nM DNA, room temperature; ctDDX11: 25 mM HEPES pH 7.5, 25 mM KCl, 1 mM MgSO4, 1 mM TCEP, 2 nM …
# [7] = system: ctXPD wild type (Chaetomium thermophilum); test: fluorescence anisotropy; conditions: 5 mM Mg2+; no MAT1; ctXPD: 20 mM HEPES pH 7.5, 50 mM KCl, 5 mM MgCl2, 1 mM TCEP, 5 nM DNA, room temperature; ctDDX11: 25 mM HEPES pH 7.5, 25 mM KCl, 1 mM MgSO4, 1 mM TCEP, 2 nM …
# [8] = system: ctXPD R333S/R334S (Chaetomium thermophilum); test: fluorescence anisotropy; conditions: 5 mM Mg2+, ctXPD: 20 mM HEPES pH 7.5, 50 mM KCl, 5 mM MgCl2, 1 mM TCEP, 5 nM DNA, room temperature, ctDDX11: 25 mM HEPES pH 7.5, 25 mM KCl, 1 mM MgSO4, 1 mM TCEP, 2 nM …
# [9] = system: ctXPD K369E (Chaetomium thermophilum); test: fluorescence anisotropy; conditions: 5 mM Mg2+; no MAT1; text gives 54 nM; ctXPD: 20 mM HEPES pH 7.5, 50 mM KCl, 5 mM MgCl2, 1 mM TCEP, 5 nM DNA, room temperature; ctDDX11: 25 mM HEPES pH 7.5, 25 mM KCl, 1 mM MgSO4, 1 mM TCEP, 2 nM …
# [10] = system: ctXPD R323E (Chaetomium thermophilum); test: fluorescence anisotropy; conditions: 5 mM Mg2+; no MAT1; ctXPD: 20 mM HEPES pH 7.5, 50 mM KCl, 5 mM MgCl2, 1 mM TCEP, 5 nM DNA, room temperature; ctDDX11: 25 mM HEPES pH 7.5, 25 mM KCl, 1 mM MgSO4, 1 mM TCEP, 2 nM …
# [11] = target: T1, human XPD, wild type (XPD-FLAG) (human) (UniProt P18074)
# T1 sequence: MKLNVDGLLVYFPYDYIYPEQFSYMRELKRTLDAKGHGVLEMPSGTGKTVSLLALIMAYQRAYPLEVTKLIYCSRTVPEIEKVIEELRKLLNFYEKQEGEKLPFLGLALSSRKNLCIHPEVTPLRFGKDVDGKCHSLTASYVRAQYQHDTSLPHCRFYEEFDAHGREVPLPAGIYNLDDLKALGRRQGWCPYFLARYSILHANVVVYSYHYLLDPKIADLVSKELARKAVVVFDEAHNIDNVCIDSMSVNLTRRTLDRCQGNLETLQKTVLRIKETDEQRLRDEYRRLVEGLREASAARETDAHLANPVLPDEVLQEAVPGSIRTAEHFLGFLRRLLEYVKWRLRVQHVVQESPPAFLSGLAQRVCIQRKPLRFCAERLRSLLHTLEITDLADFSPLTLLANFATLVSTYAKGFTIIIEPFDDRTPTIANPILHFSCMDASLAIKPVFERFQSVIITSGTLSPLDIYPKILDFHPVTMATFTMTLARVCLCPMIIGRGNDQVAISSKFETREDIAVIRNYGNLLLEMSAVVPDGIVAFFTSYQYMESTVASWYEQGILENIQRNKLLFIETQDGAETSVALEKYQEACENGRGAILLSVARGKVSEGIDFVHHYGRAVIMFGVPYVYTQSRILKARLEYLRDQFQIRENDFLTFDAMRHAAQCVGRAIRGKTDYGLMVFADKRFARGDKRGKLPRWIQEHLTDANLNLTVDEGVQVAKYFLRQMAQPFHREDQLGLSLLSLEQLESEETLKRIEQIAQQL
# [12] = target: Chaetomium thermophilum XPD, wild type (Chaetomium thermophilum); test: native gel or EMSA; native PAGE of ctXPD with the ctMAT1 fragments ctMAT1Archway and ctMAT1Lock at similar concentrations (Supplementary Fig. 2c); unbound fragment quantified
# [13] = target: Chaetomium thermophilum XPD, wild type (Chaetomium thermophilum)
# [14] = target: ctXPD K369A (Chaetomium thermophilum)
# [15] = equimolar ctMAT1Lock present (not bound by variant)
substance,measurement,setting,value
AGCTACCATGCCTGCACGAATTAAGCAATTCGTAATCATGGTCATAGC / GCTATGACCATGATTACGAATTGCTTGGAATCCTGACGAACTGTAG [splayed duplex DNA],Kd,[1],30.8 nM
same,Kd,[2],108 nM
same,Kd,[3]; [15],31 nM
same,Kd,[3]; no MAT1,51 nM
same,Kd,[4],50.8 nM
same,Kd,[5],379 nM
same,Kd,[6],72 nM
same,Kd,[7],66 nM
same,Kd,[8]; [15],128 nM
same,Kd,[8]; no MAT1,154 nM
same,Kd,[9],55 nM
same,Kd,[10],41 nM
human CAK with MAT1 D97S/E100S (from UniProt P51948 1-309; P50613 1-346; P51946 1-323) (complex),"in vitro run-off transcription with core-TFIIH lacking XPD (rIIH6), XPD and the CAK variant, residual activity against wild-type CAK",[11],55%
ctMAT1Archway (residues 83-157 of Chaetomium thermophilum MAT1) (domain or fragment),percent unbound ctMAT1 fragment,[12],84%
same,"inhibition of ctXPD helicase activity (with ctp44, 5' overhang substrate) by titration of the ctMAT1 construct, IC50",[13],2990 nM
ctMAT1Lock (residues 1-157 of Chaetomium thermophilum MAT1) (domain or fragment),percent unbound ctMAT1 fragment,[12],12.8%
same,"inhibition of ctXPD helicase activity (with ctp44, 5' overhang substrate) by titration of the ctMAT1 construct, IC50",[13],220 nM
same,"inhibition of helicase activity of the ctXPD variant by ctMAT1Lock, IC50",[14],263 nM
